Assay results reported in patent publication US6096504A, “Maize glutathione-S-transferase enzymes” (E. I. du Pont Nemours and Company, priority 1999, dated 2000).

B1: ceb5.pk0049.a11: maize class III GST enzyme encoded by cDNA clone, expressed in E. coli (protein)
chain: MAEEKKQGLQLLDFWVSPFGQRCRIALDEKGLAYEYLEQDLRNKSELLLRANPVHKKIPVLLHDGRPVCESLVIVQYLDEAFPEAAPALLPADPYARAQARFWADYVDKKLYDCGTRLWKLKGDGQAQARAEMVEILRTLEGALGDGPFFGGDALGFVDVALVPFTSWFLAYDRFGGVSVEKECPRLAAWAKRCAERPSVAKNLYPPEKVYDFVCGMKKRLGIE
B2: bms1.pk0023.g8: maize class I GST enzyme encoded by cDNA clone, expressed in E. coli (protein)
chain: MAPPMKVYGWAVSPWMARALVCLEEAGADYEIVPMSRCGGDHRRPEHLAKNPFGEIPVLEDGDLTLYQSRAIARYVLRKLKPELLREGDLEGSAMVDAWMEVEAHHMEPALWPIIRHSIIGQYVGRERDHQAVIDENLDRLRKVLPAYEARLSVCKYLVGDDISAADLCHFGFMRYFMATEYAGLVDAYPHVKAWWDALLARPSVQKVMAGMPPDFGYASGNIP
B3: cs1.pk0010.c5: maize class I GST enzyme encoded by cDNA clone, expressed in E. coli (protein)
chain: MAAGLQVFGQPASTDVARVLTCLFEKKLEFELVRIDTFKTHHRLPEFIRLRDPNGQVTFKHGDKTLVDSRDICRYVCNQFPNYGNKSLYGSGALERASIEQWLQAEAQNFGPPSSALVFQLAFVPHLSHLGVRQDPAVIAENEDKLKQVLDVYDEILSKNEYLAGDEFTLADLSHLPNSHYIVNTERGRKLFTNKKNVAKWYDRLSKRETWVQVVKMQKEHPGAFK
B4: m.15.5.d06.sk20: maize class II GST enzyme encoded by cDNA clone, expressed in E. coli (protein)
chain: MAEVEATVGRLMLYSYWRSSCSHRARIALNLKGVDYEYKAVNLLKGEQSDPEFVKLNPMKFVPALVDGSSVIGDSYAITLYLEDKYPEPPLLPQDLQKKALNHQIASIVASGIQPLHNLTVLRFIDQKVGAGESVLWTQQQIERGFTAIENLIQLKGCAGKYATGDEVQLADVFLAPQIYAAIERTKIDMSNYLTLARLHSEYMSHPAFEAALPGKQPDAPSSS
B5: ceb1.pk0017.a5: maize class I GST enzyme encoded by cDNA clone, expressed in E. coli (protein)
chain: MAAPVTVYGPMLSPAVARVAACLLEKDVPFQIEPVDMSKGEHKSPSFLKLQPFGQVPAFKDHLTTVFESRAICRYICDQYADSGNQALFGKKEDGAVGRAAIEQWIESEGQSFNPPSLAIIFQLAFAPMMGRTTDLAVVEQNEAKLAKVLDVYDQRLGESQYFAGDDFSPGRPCALAQCRFPCEQNQQGWLDHREKESC
B6: ceb5.pk0051.f8: maize class III GST enzyme encoded by cDNA clone, expressed in E. coli (protein)
chain: MAGETKKGLVLLDFWVSPFGQRCRIALAEKGIAYEYSEQELLGGAKSDILLRSNPVHKKIPVLLHDGRPVCESLVILEYLEEAFPEASPRLLPDAAYARAQARFWAAYSDKVYKAGTRLWKLRGDARAQARAEIVQVVRNLDGELGDKAFFGGEAFGFVDVALVPFVPWLPSYERYGDFSVAEIAPRLAAWARRCAQRESVARTLHPPEKVDEFINLLKKTYGIE

Experiments:
Assay type in all cases: biochemical
Conditions in all cases: purified enzyme, 0.4 mM electrophilic substrate, 4 mM glutathione, 0.1 M MOPS pH 7.0
[1] = GST conjugation of ethacrynic acid with glutathione (HPLC)
Excerpt: (§1) The GST enzymes, expressed and purified as described in Example 5 were screened for their ability to metabolize a variety of substrates. Substrates tested included the three herbicide electrophilic substrates chlorimuron ethyl, alachlor, and Atrazine, and four model electrophilic substrates, 1-chloro-2,4-dinitrobenzene (CDNB), ethacrynic acid, t-stilbene oxide, and 1,2-epoxy-3-(p-nitrophenoxy)propane. The enzymes were purified as described in Example 5 and used in the following assay.
(§2) For each enzyme, the conjugation reaction with each electrophilic substrate was performed by incubating 0.3 to 30 μg enzyme in 0.1 M MOPS (pH 7.0) containing 0.4 mM of the electrophilic substrate. The reaction was inititated by the addition of glutathione to a final concentration of 4 mM. After 5 to 30 min, the reaction was terminated by the addition of 45 μL acetonitrile, microfuged for 10 min to remove precipitated protein, and then the supernatent was removed and added to 65 μl of water. This sample was chromatographed on a Zorbax C8 reverse phase HPLC column (3 μm particle size, 6.2 mm×8 cm) using a combination of linear gradients (flow=1.5 mL/min) of 1% H3 PO4 in water (solvent A) and 1% H3 PO4 in acetonitrile. The gradient started with 5% solvent B, progressing from 5% to 75% solvent B between 1 and 10 min, and from 75% to 95% solvent B between 10 and 12 min. Control reactions without enzyme were performed to correct for uncatalyzed reaction. Quantitation of metabolites were based on an assumption that the extinction coefficient of the conjugate was identical to that of the electrophilic substrate.

[2] = GST conjugation of 1,2-epoxy-3-(p-nitrophenoxy)propane with glutathione (HPLC)
Excerpt: as §1, §2

[3] = GST conjugation of chlorimuron ethyl with glutathione (HPLC)
Excerpt: as §1, §2

[4] = GST conjugation of t-stilbene oxide with glutathione (HPLC)
Excerpt: as §1, §2

[5] = GST conjugation of CDNB with glutathione (HPLC)
Excerpt: as §1, §2

[6] = GST conjugation of alachlor with glutathione (HPLC)
Excerpt: as §1, §2

[7] = GST conjugation of Atrazine with glutathione (HPLC)
Excerpt: as §1, §2

Molecule	activity of enzyme with Ethacrynic Acid [1] [nmol/min/mg]	activity of enzyme with 1,2-epoxy-3-(p-nitrophenoxy)propane [2] [nmol/min/mg]	activity of enzyme with Chlorimuron-Ethyl [3] [nmol/min/mg]	activity of enzyme with t-Stilbene Oxide [4] [nmol/min/mg]	activity of enzyme with CDNB [5] [nmol/min/mg]	activity of enzyme with Alachlor [6] [nmol/min/mg]	activity of enzyme with Atrazine [7] [nmol/min/mg]
B1	102	30	0.4	0.01	3939	18	0.01
B2	13	0	0.2	0.00	15	0	0.00
B3	9	0	0.1	0.00	30	0	0.00
B4	17	1	0.1	0.00	45	0	0.00
B5	5	0	0.1	0.00	15	0	0.00
B6	117	14	1.9	0.02	2136	27	0.08
